Experimental data as given in PMC5437297, “PTEN regulates glioblastoma oncogenesis through chromatin-associated complexes of DAXX and histone H3.3” (Nature Communications, 2017).

Biological target: T1, human recombinant Flag-DAXX protein (human, UniProt Q9UER7 1-740)
T1 construct: DAXX (death-domain associated protein), human, recombinant; Commercial protein; no catalogue number is printed in the main text; source: bought: OriGene Technologies (recombinant protein)
Experiment: pull-down; 50 ng His-PTEN immobilised on 30 ul nickel beads, incubated with 200 ng Flag-DAXX for 2 h at 4 °C; bound proteins eluted and immunoblotted (the legend says IP anti-PTEN, IB anti-Flag)
Conditions: both partners purified

T1 sequence (Q9UER7 whole entry): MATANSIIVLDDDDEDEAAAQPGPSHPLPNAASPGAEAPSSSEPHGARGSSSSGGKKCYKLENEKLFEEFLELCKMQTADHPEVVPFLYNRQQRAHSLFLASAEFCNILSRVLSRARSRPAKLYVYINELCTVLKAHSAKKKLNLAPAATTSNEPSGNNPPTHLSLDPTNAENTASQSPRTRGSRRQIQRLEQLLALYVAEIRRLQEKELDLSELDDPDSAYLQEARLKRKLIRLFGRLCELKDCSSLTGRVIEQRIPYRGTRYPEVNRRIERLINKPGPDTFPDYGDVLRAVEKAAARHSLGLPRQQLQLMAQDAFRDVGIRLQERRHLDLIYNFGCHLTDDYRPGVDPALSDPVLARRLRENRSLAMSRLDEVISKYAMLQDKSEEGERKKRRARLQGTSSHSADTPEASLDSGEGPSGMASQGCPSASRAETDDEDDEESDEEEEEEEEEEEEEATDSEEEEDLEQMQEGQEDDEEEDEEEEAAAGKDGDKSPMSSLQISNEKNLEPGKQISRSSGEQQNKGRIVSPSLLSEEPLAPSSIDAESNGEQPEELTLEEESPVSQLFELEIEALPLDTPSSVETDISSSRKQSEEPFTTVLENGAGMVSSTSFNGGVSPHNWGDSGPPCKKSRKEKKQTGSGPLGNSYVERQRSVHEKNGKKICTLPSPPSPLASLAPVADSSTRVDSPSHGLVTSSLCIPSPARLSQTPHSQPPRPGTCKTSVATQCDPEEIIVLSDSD

B1: human recombinant His-PTEN (natural protein)
chain: not shown
notes: PTEN (phosphatase and tensin homolog), human, recombinant; Commercial protein; no catalogue number is printed in the main text (reagents are in the Supplementary Methods); source: bought: ENZO Life Science (recombinant protein)
binding result: binds
